Experimental data: patent publication US20050112108, “Transcriptional regulator of genes involved in the control of cell growth or cell proliferation. Use of said regulator as a therapeutic or diagnostic agent” (published 2005)

T1: GAAP-1 (IPCS-BF1, 2.5 kb PRDII-BF1 splice product) (Homo sapiens, UniProt P15822 SEQ:1-693)
T1 chain: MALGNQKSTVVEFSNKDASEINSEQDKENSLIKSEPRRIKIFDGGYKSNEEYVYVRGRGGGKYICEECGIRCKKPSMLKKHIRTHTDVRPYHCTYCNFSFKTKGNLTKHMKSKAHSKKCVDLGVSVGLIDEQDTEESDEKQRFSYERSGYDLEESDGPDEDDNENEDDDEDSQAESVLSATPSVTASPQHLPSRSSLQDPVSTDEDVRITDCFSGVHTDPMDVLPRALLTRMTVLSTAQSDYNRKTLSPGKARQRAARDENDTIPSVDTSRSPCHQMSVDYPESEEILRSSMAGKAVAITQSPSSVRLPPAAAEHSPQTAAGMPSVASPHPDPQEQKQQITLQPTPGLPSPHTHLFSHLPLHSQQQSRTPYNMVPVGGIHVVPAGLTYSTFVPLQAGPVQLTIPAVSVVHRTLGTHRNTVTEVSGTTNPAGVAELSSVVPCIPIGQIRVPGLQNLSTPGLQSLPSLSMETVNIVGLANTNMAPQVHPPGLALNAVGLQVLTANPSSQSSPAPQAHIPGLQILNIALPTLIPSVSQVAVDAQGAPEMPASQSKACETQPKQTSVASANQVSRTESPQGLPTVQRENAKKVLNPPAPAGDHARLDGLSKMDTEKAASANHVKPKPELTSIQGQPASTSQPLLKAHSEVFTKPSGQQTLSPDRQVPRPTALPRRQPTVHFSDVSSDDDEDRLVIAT

B1: IPCS-p53 EMSA probe (dsDNA)
DNA 1: AATGCAGGATTCCTCCAAAATGATTTCCAC
DNA 2: GTGGAAATCATTTTGGAGGAATCCTGCATT
B2: NF-kB-MHC (dsDNA)
DNA 1: GATCCTCTGGGGATTCCCCATGGA
DNA 2: TCCATGGGGAATCCCCAGAGGATC

Key:
[1] = target: T1, GAAP-1 (IPCS-BF1, 2.5 kb PRDII-BF1 …); assay: EMSA; one complex; competed by 50-fold excess; weaker than NF-kB probe in vitro; settings: tags: none (TNT reticulocyte lysate, pcDNA3.1); label: 32P
Description: FIG. 5a)—EMSA using the IPCS-p53 probe and in vitro translated GAAP-1 (lane1), GAAP-1 mtZ1 (lane 3), GAAP-1 mt Z2 (lane 5), or reticulocyte lysat with the empty expression vector (lane 7). Even lanes: 50 fold molar excess of IPCS-p53 oligonucleotide was added to the reaction of the previous lane. The arrow indicates the specific complex.
Synthetic double stranded oligonucleotide probes were labelled with α-³²P dCTP (Amersham Corp.) by “filling-in” with Sequenase, and then purified on Sephadex G-50. The protein-DNA binding reactions were carried out using 5 μg of nuclear extract and 0.1 fmol of probe in 20 μl of binding buffer (20 mM Tris-HCl, 25 mM KCl, 1 mM DTT, 1 mM EDTA, 0.1% Nonidet P40, 4% glycerol, 1 mg/ml bovine serum alcbumin, μg/ml poly(dI-dC)) for 20 min at 4° C. In vitro translation products were generated by 50 μl of TNT coupled reticulocyte Lysate System (Promega) and 1 μg of the appropriate plasmid. […]
PRDII-BF1 was previously described as a protein binding to an NF-κB site whose ability to recognise the DNA is determined by two pairs of zinc fingers, one of them present in GAAP-1 (Fan 90, Gaynor, Baldwin). […] To confirm the binding specificity of the cloned GAAP-1 for the IPCS target sequence, in vitro translated GAAP-1 was incubated with labelled IPCS or NF-κB oligonucleotide and analysed by Electro Mobility Shift Assay (EMSA). […]

[2] = target: T1, GAAP-1 (IPCS-BF1, 2.5 kb PRDII-BF1 …); assay: EMSA; two complexes (possible homodimer); considerably stronger than IPCS-p53; settings: tags: none (TNT reticulocyte lysate, pcDNA3.1); label: 32P
Description: The protein-DNA binding reactions were carried out using 5 μg of nuclear extract and 0.1 fmol of probe in 20 μl of binding buffer (20 mM Tris-HCl, 25 mM KCl, 1 mM DTT, 1 mM EDTA, 0.1% Nonidet P40, 4% glycerol, 1 mg/ml bovine serum alcbumin, μg/ml poly(dI-dC)) for 20 min at 4° C. In vitro translation products were generated by 50 μl of TNT coupled reticulocyte Lysate System (Promega) and 1 μg of the appropriate plasmid. 5 μl of the in vitro product was used instead of the nuclear extract when required. The reaction mixture was then electrophoresed on a 6% non denaturing acrylamide gel. Competition experiments were carried out using a 50-fold molar excess of the unlabelled probe. The following oligonucleotides (and their complementary strands) were used in these studies:
PRDII-BF1 was previously described as a protein binding to an NF-κB site whose ability to recognise the DNA is determined by two pairs of zinc fingers, one of them present in GAAP-1 (Fan 90, Gaynor, Baldwin). […] To confirm the binding specificity of the cloned GAAP-1 for the IPCS target sequence, in vitro translated GAAP-1 was incubated with labelled IPCS or NF-κB oligonucleotide and analysed by Electro Mobility Shift Assay (EMSA). […] Furthermore, the affinity of in vitro translated GAAP-1 was considerably stronger for the NF-κB probe than for the IPCS-P53 probe. […]

Binder	binding result [1]	binding result [2]
B1	binds	–
B2	–	binds
